Data published in patent US20200216515A1 (CELLECTIS, published 2020).

T1: CLL-1 (UniProt Q5QGZ9 65-265, limits assumed)
T1 sequence (looked up): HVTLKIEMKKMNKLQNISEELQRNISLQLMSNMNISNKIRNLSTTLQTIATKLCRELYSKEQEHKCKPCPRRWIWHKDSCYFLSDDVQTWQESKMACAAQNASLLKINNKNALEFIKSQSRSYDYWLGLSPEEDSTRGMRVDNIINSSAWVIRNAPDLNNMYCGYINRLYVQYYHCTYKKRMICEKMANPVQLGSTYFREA

B1: M22 (antibody, V domains shown)
VH: QVQLQQPGAELVKPGASVKLSCKASGYTFTRYWMHWVKQRPGQGLEWIGNIDPSDTETHYNQQFKDKATLTVDKSSSTAYMQLSSLTSEDSAVYYCAIYYGNPSYYAMDYWGQGTSVTVSS
VL: DIVMTQSPSSLTVTAGEKVTMSCKSSQNLLNSGNQKKYLNWYQQKPGQPPKLLIYWASTRESGVPDRFTGSGSGTDFTLTISSVQAEDLAVYFCQNDYSYPFTFGAGTKLELK
B2: M29 (antibody, V domains shown)
VH: EVQLQQSGPELVKPGASVKMSCKASGYIFTSYVMYWVKQKPGQGLEWIGYINPYNDGTKYNEKFKGKATLTSDKSSSTAYMELSSLTSEDSAVYYCARYYDYDYYFDYWGQGTTLTVSS
VL: DIQMTQSPSSLSASLGGKVTITCKASQDINKYIAWYQHKPGKGPRLLIHYTSTLQPGIPSRFSGSGSGRDYSFSISNLEPEDIATYYCLQYDYLWTFGGGTKLEIK
B3: M26 (antibody, V domains shown)
VH: EVQLQQSGPELVKPGASVKMSCKASGYTFTSYFIHWVKQKPGQGLEWIGFINPYNDGSKYNEKFKGKATLTSDKSSSTAYMELSSLTSEDSAVYYCTRDDGYYGYAMDYWGQGTLVTVSS
VL: DIQMTQSPSSLSASLGERVSLTCRATQELSGYLSWLQQKPDGTIKRLIYAASTLDSGVPKRFSGNRSGSDYSLTISSLESEDFADYYCLQYAIYPYTFGGGTKLEIK
B4: G12 (antibody, V domains shown)
VH: QVQLQQPGAELVKPGASMKMSCKASGYTFPSSNIHWLKQTPGQGLEWIGVIYPGNGDTSYNQKFKDKATLTTDKSSSTAYMQLSSLTSEDSAIYFCARVYNWHFDVWGAGTTVTVSS
VL: NIVLTQSPASLAVSLGQRATISCRASESVDGYGDIFMLWYQQKPGQPPKLLIYFASNLESGVPARFSGSGSRTDFTLTIDPVEADDAATYYCQQNNEDPYTFGGGTKLEIK

Target: T1, CLL-1
Assay: method not stated (Table 2, affinity of antibodies for CLL-1)

Binder	Kd [pM]
B1	388
B2	1480
B3	214
B4	70
